{
  "source": "patent US20190134143A1",
  "about": "(BIOCELLS BEIJING BIOTECH, published 2019)",
  "target": "T1, PDZ1/2 domain",
  "T1 construct": "domain: PDZ1/2; also called PDZ1/2 protein",
  "T1 sequence (P78352 65-246)": "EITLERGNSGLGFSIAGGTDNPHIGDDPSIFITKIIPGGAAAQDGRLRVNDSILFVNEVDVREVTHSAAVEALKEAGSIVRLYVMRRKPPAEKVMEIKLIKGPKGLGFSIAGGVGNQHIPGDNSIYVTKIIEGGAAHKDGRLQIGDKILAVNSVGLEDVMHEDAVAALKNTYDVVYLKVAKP",
  "assay": "SPR, Biacore 3000; PDZ1/2 amine-coupled to the chip, peptide as analyte, 1:1 binding model",
  "protocol": "The immobile phase molecule (ligand) was PDZ1/2 protein with a molecular weight of approximately 20 kD at a concentration of 2 mg/ml. The mobile phase molecule (analyte) was a polypeptide to be screened with a molecular weight of approximately 2 kD at a concentration of 10 mg/ml. The CMS chip was used for fixation using a Biacore 3000 instrument. The electrophoresis buffer was PBS plus 0.005% Tween 20. Fixation was carried out using an amino coupling method. The concentration of the ligand was 10 μg/ml. The fixation buffer was 10 mM sodium acetate, pH 4.0. Fixed amount was 1400 RU, which was fixed to flow cell 2. The used flow rate was 10 μl/ml and the ligand was loaded for 1 minute. 10 mM Gly at pH 2.0+2.5 was used as a regenerant. Regeneration was carried out at a flow rate of 30 μl/min. The loading time was 30 s.",
  "data": [
    {"binder": "YGRKKRRQRRRYEKLSSIESDV", "note": "[chimeric peptide YE-NA-1]", "values": [
      {"measurement": "Kd", "value": 0.0544, "unit": "µM"}
    ]}
  ]
}
